In patent US20220356229A1 (published 2022):
Changes are numbered by the printed parent chain.

B1: antibody 342 (antibody, V domains shown)
VH: EVQLVQSGAEVKKPGATVKISCKVSGYTFTDYYMHWVQQAPGKGLEWMGLVDPEDGETIYAEKFQGRVTITADTSTDTAYMELSSLRSEDTAVYYCATGGVSVWFREFPASYSGSYLGYWGQGTLVTVSS
VL: not shown
B2: antibody 332 (antibody, V domains shown)
VH: QVTLRESGPALVKPTQTLTLTCTFSGFSLSTSGMCVSWIRQPPGKALEWLALIDWDDDKYYSTSLKTRLTISKDTSKNQVVLTMTNMDPVDTATYYCARIHDDILTGYHYVDYWGQGTLVTVSS
VL: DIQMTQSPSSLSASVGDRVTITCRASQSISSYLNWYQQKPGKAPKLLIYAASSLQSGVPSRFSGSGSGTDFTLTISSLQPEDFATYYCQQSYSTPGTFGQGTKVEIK
B3: antibody 349 (antibody, V domains shown)
VH: EVQLVQSGAEVKKPGATVKISCKVSGYTFTDYYMHWVQQAPGKGLEWMGLVDPEDGETIYAEKFQGRVTITADTSTDTAYMELSSLRSEDTAVYYCATENKVPTIIAAAGTRDYYYYGMDVWGQGTTVTVSS
VL: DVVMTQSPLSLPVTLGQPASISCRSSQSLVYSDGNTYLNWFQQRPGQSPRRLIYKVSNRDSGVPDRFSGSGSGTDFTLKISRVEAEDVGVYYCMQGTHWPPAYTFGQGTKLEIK
B4: antibody 348 (antibody, V domains shown)
VH: QVQLVQSGSELKKPGASVKVSCKASGYTFTSYAMNWVRQAPGQGLEWMGWINTNTGNPTYAQGFTGRFVFSLDTSVSTAYLQISSLKAEDTAVYYCARDHELPNTSSWFGHFEYWGQGTLVTVSS
VL: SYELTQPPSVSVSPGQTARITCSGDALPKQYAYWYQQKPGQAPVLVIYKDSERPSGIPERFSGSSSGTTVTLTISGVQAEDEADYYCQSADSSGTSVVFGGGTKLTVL
B5: antibody 323 (antibody, V domains shown)
VH: QVQLVQSGAEVKKPGASVKVSCKVSGYTLTELSMHWVRQAPGKGLEWMGGFDPEDGETIYAQKFQGRVTMTEDTSTDTAYMELSSLRSEDTAVYYCATSTIFAPGGWFDPWGQGTLVTVSS
VL: QSALTQPASVSGSPGQSITISCTGTSSDVGSYNLVSWYQQHPGKAPKLMIYEVSKRPSGVSNRFSGSKSGNTASLTISGLQAEDEADYYCCSYAGSTHYVFGTGTKVTVL
B6: antibody 345 (antibody, V domains shown)
VH: QVQLQESGPGLVKPSQTLSLTCTVSGGSISSGDYYWSWIRQPPGKGLEWIGYIYYSGSTYYNPSLKSRVTISVDTSKNQFSLKLSSVTAADTAVYYCARVGMVDNWNFEGNWFDPWGQGTLVTVSS
VL: QSALTQPRSVSGSPGQSVTISCTGTSSDVGGYNYVSWYQQHPGKAPKLMIYDVSKRPSGVPDRFSGSKSGNTASLTISGLQAEDEADYYCCSYAGSVVFGGGTKLTVL
B7: antibody 340 (antibody, V domains shown)
VH: QVQLVQSGAEVKKPGASVKVSCKASGYTFTSYDINWVRQATGQGLEWMGWMNPNSGNTGYAQKFQGRVTMTRNTSISTAYMELSSLRSEDTAVYYCARGRYCTGGVCWGDWYFDLWGRGTLVTVSS
VL: QSVLTQPPSVSGAPGQRVTISCTGSSSNIGAGYDVHWYQQLPGTAPKFLIYGNSNRPSGVPDRFSGSKSGTSASLAITGLQAEDEADYYCQSYDSSLSGPVFGGGTKLTVL
B8: antibody 337 (antibody, V domains shown)
VH: QVQLVESGGGVVQPGRSLRLSCAASGFTFSSYGMHWVRQAPGKGLEWVAIIWYDGSNKYYADSVKGRFTISRDNSKNTLYLQMNSLRAEDTAVYYCAKDTGGYCSGGSCYPESYFDYWGQGTLVTVSS
VL: SYVLTQPPSVSVAPGKTARITCGGNNIGSKSVHWYQQKPGQAPVLVIYYDSDRPSGIPERFSGSNSGNTATLTINRVEAGDEADYYCQVWDGSSDHLYVFGTGTKVTVL
B9: antibody 333 (antibody, V domains shown)
VH: QVHLVESGGGVVLPGRSLRLSCSASQFIFSNYDMHWVRQSPGMGLEWVAGISSDGSDKYYIDSVRGRFTISRDNAKNTLFLQMNSLTTEDTAVYSCAKGGGKFGQYWGRGTLVTVSS
VL: AIQMTQSPSSLSASVGDRVTITCRASQVIRNDLAWFQQKPGEAPNLLVYSASNLQSGVPSRFSGSGSGTDFTLTISSLQPEDFATYYCLQDYSYPYTFGQGTKLDMK
B10: antibody 320 (antibody, V domains shown)
VH: QVQLVQSGAEVKKPGASVKVSCKASGYTFTSYGISWVRQAPGQGLEWMGWISAYNGNTNYAQKLQGRVTMTTDTSTRTAYMELRSLRSDDTAVYYCARVGCYYDSSGYSCAENFQHWGQGTLVTVSS
VL: QSVLTQPPSVSGAPGQRVTISCTGSSSNIGAGYDVHWYQQLPGTAPKLLIYGNSNRPSGVPDRFSGSKSGTSASLAITGLQAEDEADYYCQSYDSSLSALFGGGTKLTVL
B11: antibody 329 (antibody, V domains shown)
VH: EVQLVESGGGLVQPGGSLRLSCAASGFTFSSYWMHWVRQAPGKGLVWVSRINSDGSSTSYADSVKGRFTISRDNAKNTLYLQMNSLRAEDTAVYYCAREGIVATITLDYWGQGTLVTVSS
VL: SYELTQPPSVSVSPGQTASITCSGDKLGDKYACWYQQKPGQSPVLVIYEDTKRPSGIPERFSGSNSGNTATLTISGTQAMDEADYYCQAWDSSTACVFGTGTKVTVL
B12: antibody 324 (antibody, V domains shown)
VH: QVQLQESGPGLVKPSGTLSLTCAVSGGSISSSNWWSWVRQPPGKGLEWIGEIYHSGSTNYNPSLKSRVTISVDNSKNQFSLKLSSVTAADTAVYYCARESVAAAGISYYYYGMDVWGQGTTVTVSS
VL: EIVLTQSPGTLSLSPGERATLSCRASQSVSGRYLAWYQQKPGQAPRLLIYGASSRATGIPDRFSGSGSGTDFTLTISRLEPEDFAVYYCQHYGSSPGTFGQGTRLEIK
B13: antibody 328 (antibody, V domains shown)
VH: B12 VH
VL: DIQMTQSPSSLSASVGDRVTITCRASQGIRNDLGWYQQKPGKAPKRLIYAASSLQSGVPSRFSGSGSGTEFTLTVSGLQPEDFATYYCLQYNSSPLTFGGGTKVEIK
B14: antibody 351 (antibody, V domains shown)
VH: HVQLVESGGGVVQPGRSLRLSCAASGFISRNYGMEWVRQAPGQGLEWVAGIWYDGSKKYYADSVKGRFTISRDTSKNTLFLQMDSLRAEDTAVFYCATATKTFCGGDCPPGGMDVWGQGTTVTVST
VL: SYVLTQPPSVSVAPGKTAWITCVGNNIESESVHWYQQRPGQAPVLVIYYDSDRPSGIPERFFGSNSGNTATLTISRVEAGDEADYYCQVWDSNSDLMVFGGGTKLTVL
B15: antibody 331 (antibody, V domains shown)
V domain 1: QITLKESGPTLVKPTETLTLTCSFSGFSLTKTGEAAGWIRQAPGRALEWVTVIFWDDDKRYSPSLQNRISVTKDTSKNQVVLRMTNVARFDTGTYFCWAMGGPGKEYFGQGTLVAVSS
V domain 2: QSVLTQPPSVSGAPGQRVTISCTGTSSSIGPYSDVHWYQHVSGKAPRLLIFGNSNRPSGVPDRFSGSKSGTSASLVIAGLQAEDEADYYCQSYDSSLGEIYVFGTGTTVTVL
B16: antibody 339 (antibody, V domains shown)
V domain 1: B15 V domain 1 with K31R, N67S, I69L, S70T, R83T, G93A, L113Q
V domain 2: B15 V domain 2
B17: antibody 343 (antibody, V domains shown)
VH: QVQLVESGGDVVQPGTSLRLSCAASGFTFNNYGFHWVRQAPGKGLEWVALISSDGASTHYADSVKGRFTISRDSSVNTLYLQMNSLSLEDTAVYYCATGHCGTTCYYFDYWGQGTLVSVSS
VL: DIQVTQSPSYLSASVGDRVTITCRASQTISTFLQWYQQKVGKAPKLLIYAASTLQSGVPSRFSGSGSGTDFSLTISSLQPEDFATYYCQQSYSAPLSFGGGTKVEIK

Biological target: SARS-CoV Spike protein (SARS-CoV, UniProt P59594 14-1190)

| Binder | bead binding signal (median fluorescence, fold over isotype control) |
| --- | --- |
| B1 | 1.16 fold over isotype control |
| B2 | 0.99 fold over isotype control |
| B3 | 1.12 fold over isotype control |
| B4 | 1.16 fold over isotype control |
| B5 | 1.29 fold over isotype control |
| B6 | 1.09 fold over isotype control |
| B7 | 1.26 fold over isotype control |
| B8 | 439 fold over isotype control |
| B9 | 1.21 fold over isotype control |
| B10 | 989 fold over isotype control |
| B11 | 2.46 fold over isotype control |
| B12 | 1.14 fold over isotype control |
| B13 | 1.22 fold over isotype control |
| B14 | 1.08 fold over isotype control |
| B15 | 1.34 fold over isotype control |
| B16 | 1.27 fold over isotype control |
| B17 | 1.19 fold over isotype control |
